Changes are numbered by the printed parent chain. Numbers in names are those of the source.
B1: anti-CXCR4 chimeric Mab c515H7 (antibody, V domains shown)
VH: EVNLVESGGGLVQPGGSLRLSCATSGFTFTDNYMSWVRQPPGKALEWLGFIRNKANGYTTDYSASVRGRFTISRDNSQSILYLQMNALRAEDSATYYCARDVGSNYFDYWGQGTTLTVSS
VL: DIVMSQSPSSLAVSAGEKVTMSCKSSQSLFNSRTRKNYLAWYQQKPGQSPKLLIYWASARDSGVPARFTGSGSETYFTLTISRVQAEDLAVYYCMQSFNLRTFGGGTKLEIK
B2: anti-CXCR4 Mab 515H7 (murine monoclonal antibody) (antibody, V domains shown)
VH: B1 VH
VL: B1 VL
B3: humanized Mab hz515H7 VH1 D76N VL2 (antibody, V domains shown)
VH: EVQLVESGGGLVQPGRSLRLSCTASGFTFTDNYMSWVRQAPGKGLEWVGFIRNKANGYTTEYAASVKGRFTISRDNSKSIAYLQMNSLKTEDTAVYYCARDVGSNYFDYWGQGTLVTVSS
VL: B1 VL with S5T, A15L, K18R, V19A, G105Q, L109V
B4: anti-CXCR4 Mab 301aE5 (murine monoclonal antibody) (antibody, V domains shown)
VH: QVQLKESGPGLVAPSQSLSITCTVSGFSLTDYGVYWVRQPPGKGLEWLGMIWGDGTTDYNSALKSRLSISKDNSKSQVFLKMNTLQTDDTARYYCARGRQFGFDYWGQGTTLTVSS
VL: B1 VL with S22R, Y55F, A59I, D61E, A66D, E74G, Y76D, R83S, M95K, F98Y
B5: humanized Mab hz515H7 VH1 D76N VL2.2 (antibody, V domains shown)
VH: B3 VH
VL: B1 VL with S5T, S9D, A15L, K18R, V19A, S49P, A66D, L89V, G105Q, L109V
B6: humanized Mab hz515H7 VH1 D76N VL2.3 (antibody, V domains shown)
VH: B3 VH
VL: DIVMTQSPDSLAVSLGERATMSCKSSQSLFNSRTRKNYLAWYQQKPGQPPKLLIYWASARDSGVPDRFTGSGSETYFTLTISSLQAEDLAVYYCMQSFNLRTFGQGTKVEIK
B7: humanized Mab hz515H7 VH1 D76N VL2.1 (antibody, V domains shown)
VH: B3 VH
VL: B6 VL with T69S, S83R, L84V

Each binder was assayed against CXCR4 homodimer BRET pair [CXCR4/Rluc+CXCR4/YFP] on HEK293 cells (Renilla reniformis, UniProt P61073 1-352; P61073 1-352) (assay: cell-based or functional assay).
Sequence of CXCR4 homodimer BRET pair [CXCR4/Rluc+CXCR4/YFP] on HEK293 cells (P61073 whole entry, chain 1 of 2): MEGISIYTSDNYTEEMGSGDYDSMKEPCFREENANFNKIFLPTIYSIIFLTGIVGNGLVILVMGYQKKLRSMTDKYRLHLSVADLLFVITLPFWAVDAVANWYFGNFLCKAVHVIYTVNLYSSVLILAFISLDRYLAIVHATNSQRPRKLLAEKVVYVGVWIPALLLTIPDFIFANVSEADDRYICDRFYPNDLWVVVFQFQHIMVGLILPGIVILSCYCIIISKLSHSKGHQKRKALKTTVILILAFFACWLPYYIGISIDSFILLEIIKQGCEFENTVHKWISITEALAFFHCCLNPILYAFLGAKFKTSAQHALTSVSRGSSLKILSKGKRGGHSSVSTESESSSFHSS
Sequence of CXCR4 homodimer BRET pair [CXCR4/Rluc+CXCR4/YFP] on HEK293 cells (P61073 whole entry, chain 2 of 2): as the sequence (P61073 whole entry, chain 1 of 2) above

| Binder | % inhibition of SDF-1-induced BRET increase |
| --- | --- |
| B1 | 96% |
| B2 | 69% |
| B3 | ~88% |
| B4 | 69% |
| B5 | ~33% |
| B6 | ~21% |
| B7 | ~65% |

Each binder was assayed against T1, human CXCR4 (hCXCR4), expressed on cells (human, UniProt P61073 1-352) (assay: cell-based or functional assay).
T1 sequence (P61073 whole entry): as the sequence (P61073 whole entry, chain 1 of 2) above

| Binder | IC50 (µg/ml), % inhibition of infected cells, HIV-1 92UG024 replication in human PBMC | IC50 (µg/ml), % inhibition of infected cells, HIV-1 KON replication in human PBMC | IC50 (µg/ml), % inhibition of infected cells, HIV-1 MN replication in human PBMC | IC80 (µg/ml), % inhibition of infected cells, HIV-1 92UG024 replication in human PBMC | IC80 (µg/ml), % inhibition of infected cells, HIV-1 KON replication in human PBMC | IC80 (µg/ml), % inhibition of infected cells, HIV-1 MN replication in human PBMC | IC90 (µg/ml), % inhibition of infected cells, HIV-1 92UG024 replication in human PBMC | IC90 (µg/ml), % inhibition of infected cells, HIV-1 KON replication in human PBMC | IC90 (µg/ml), % inhibition of infected cells, HIV-1 MN replication in human PBMC |
| --- | --- | --- | --- | --- | --- | --- | --- | --- | --- |
| B1 | < 1.5 µg/mL | 1.5 µg/mL | < 1.5 µg/mL | 3 µg/mL | 10 µg/mL | 1 µg/mL | 15 µg/mL | 20 µg/mL | 15 µg/mL |
| B2 | 0.5 µg/mL | 1 µg/mL | < 1.5 µg/mL | 3 µg/mL | 8 µg/mL | 1.5 µg/mL | 10 µg/mL | 15 µg/mL | 10 µg/mL |
| B4 | 50 µg/mL | 150 µg/mL | 1 µg/mL | 150 µg/mL | > 150 µg/mL | 150 µg/mL | > 150 µg/mL | > 150 µg/mL | > 150 µg/mL |

Molecular target: T1, human CXCR4 (hCXCR4), expressed on cells
Assay: cell-based or functional assay
Remark: another data set of the same source

| Binder | IC50 (µg/ml), % inhibition of infected cells, HIV-1 89.6 (dual X4/R5) replication in human PBMC | IC80 (µg/ml), % inhibition of infected cells, HIV-1 89.6 (dual X4/R5) replication in human PBMC |
| --- | --- | --- |
| B1 | < 1.5 µg/mL | 1.5 µg/mL |
| B2 | < 1.5 µg/mL | 1.5 µg/mL |
| B4 | 20 µg/mL | 150 µg/mL |

What follows are binders tested against CCR5 on GHOST cells expressing CD4 and CCR5 (UniProt P51681 1-352, limits assumed) (assay: cell-based or functional assay).
Sequence of CCR5 on GHOST cells expressing CD4 and CCR5 (P51681 whole entry): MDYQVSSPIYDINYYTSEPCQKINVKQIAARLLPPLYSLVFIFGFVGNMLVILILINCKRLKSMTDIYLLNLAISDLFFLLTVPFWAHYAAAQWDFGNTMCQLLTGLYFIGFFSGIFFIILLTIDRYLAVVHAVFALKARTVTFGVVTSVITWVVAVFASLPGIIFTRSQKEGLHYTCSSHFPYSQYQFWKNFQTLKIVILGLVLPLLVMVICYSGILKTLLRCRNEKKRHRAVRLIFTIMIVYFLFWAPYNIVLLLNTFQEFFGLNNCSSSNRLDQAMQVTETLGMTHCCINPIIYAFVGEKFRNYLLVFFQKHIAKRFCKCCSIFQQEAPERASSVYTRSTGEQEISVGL

| Binder | IC50 (µg/ml), % inhibition of infected cells, GHOST CCR5 / R5 HIV-1 BaL virus |
| --- | --- |
| B2 | > 75 µg/mL |

Molecular target: T1, human CXCR4 (hCXCR4), expressed on cells
Assay: cell-based or functional assay
Remark: another data set of the same source

| Binder | IC50 (µg/ml), % inhibition of infected cells, GHOST CXCR4 / X4 HIV-1 LAI virus |
| --- | --- |
| B2 | 0.08 µg/mL |
